Tests used:
[1] = molecular target: T1, Hst-5 synthetic peptide K17R
T1 chain: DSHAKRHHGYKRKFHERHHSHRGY

[2] = molecular target: T2, Hst-5 synthetic peptide K17L
T2 chain: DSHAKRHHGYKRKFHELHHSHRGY

B1: purified recombinant Sap2 (C. albicans secreted aspartic protease 2) (protein)
chain: QAVPVTLHNEQVTYAADITVGSNNQKLNVIVDTGSSDLWVPDVNVDCQVTYSDQTADFCKQKGTYDPSGSSASQDLNTPFKIGYGDGSSSQGTLYKDTVGFGGVSIKNQVLADVDSTSIDQGILGVGYKTNEAGGSYDNVPVTLKKQGVIAKNAYSLYLNSPDAATGQIIFGGVDNAKYSGSLIALPVTSDRELRISLGSVEVSGKTINTDNVDVLLDSGTTITYLQQDLADQIIKAFNGKLTQDSNGNSFYEVDCNLSGDVVFNFSKNAKISVPASEFAASLQGDDGQPYDKCQLLFDVNDANILGDNFLRSAYIVYDLDDNEISLAQVKYTSASSISALT
cleavage at the C-terminal side of residue 17 by Sap2 (mass spectrometry) [1]: Substitutions at K17 did lead to a significant decrease in signals from fragments formed by cleavage at the C-terminal side of K17, however, unlike Sap9, Sap2 still cleaved K17L and K17R at this site | cleavage at the C-terminal side of residue 17 by Sap2 (mass spectrometry) [2]: Substitutions at K17 did lead to a significant decrease in signals from fragments formed by cleavage at the C-terminal side of K17, however, unlike Sap9, Sap2 still cleaved K17L and K17R at this site

From US20170291930
